Literature values in paper PMC6753016.
Like-named read-outs stand apart in the source and are kept apart here. One block for each substance: values may come before it.

How the values were obtained:
[1] = biological target: Factor XIIa (Homo sapiens) (UniProt P00748)
Trypsin (Bos taurus) [2] = biological target: Trypsin (Bos taurus) (UniProt P00760)
Plasmin (Homo sapiens) [3] = biological target: Plasmin (Homo sapiens) (UniProt P00747)
[4] = biological target: Chymotrypsin (Bos taurus) (UniProt P00766)
[5] = biological target: Cathepsin G (Homo sapiens) (UniProt P08311)
Chain of Cathepsin G (Homo sapiens) (P08311 21-243): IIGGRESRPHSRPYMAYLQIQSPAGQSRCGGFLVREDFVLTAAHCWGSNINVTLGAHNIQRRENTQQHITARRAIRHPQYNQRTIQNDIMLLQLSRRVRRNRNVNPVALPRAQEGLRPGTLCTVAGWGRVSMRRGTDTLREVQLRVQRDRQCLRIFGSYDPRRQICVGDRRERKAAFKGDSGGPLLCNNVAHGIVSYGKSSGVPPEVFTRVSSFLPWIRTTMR

[6] = biological target: Hageman factor (Homo sapiens) (UniProt P00748)
β-Trypsin (Bos taurus) = β-Trypsin (Bos taurus) (UniProt P00760)
Chain of β-Trypsin (Bos taurus) (P00760 149-246): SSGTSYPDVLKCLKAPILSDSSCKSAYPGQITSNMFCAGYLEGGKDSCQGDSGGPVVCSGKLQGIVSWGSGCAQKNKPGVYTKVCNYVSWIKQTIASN

[7] = biological target: Factor XIIa (Homo sapiens) (UniProt P00748); remark: listed apart in the source
Trypsin (Bos taurus) [8] = biological target: Trypsin (Bos taurus) (UniProt P00760); remark: listed apart in the source
Cathepsin L [9] = biological target: Cathepsin L (UniProt P07711)
Target sequence in this assay (P07711 114-288, chain 1 of 2): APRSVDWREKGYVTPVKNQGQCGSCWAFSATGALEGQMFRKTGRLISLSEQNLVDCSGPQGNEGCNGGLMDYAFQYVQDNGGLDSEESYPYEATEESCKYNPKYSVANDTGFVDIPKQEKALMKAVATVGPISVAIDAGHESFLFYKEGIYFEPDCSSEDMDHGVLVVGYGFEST
Target sequence in this assay (P07711 292-333, chain 2 of 2): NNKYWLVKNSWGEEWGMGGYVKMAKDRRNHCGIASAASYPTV

Leukocyte elastase [10] = biological target: Leukocyte elastase (UniProt P08246)
Chain of Leukocyte elastase (P08246 30-267): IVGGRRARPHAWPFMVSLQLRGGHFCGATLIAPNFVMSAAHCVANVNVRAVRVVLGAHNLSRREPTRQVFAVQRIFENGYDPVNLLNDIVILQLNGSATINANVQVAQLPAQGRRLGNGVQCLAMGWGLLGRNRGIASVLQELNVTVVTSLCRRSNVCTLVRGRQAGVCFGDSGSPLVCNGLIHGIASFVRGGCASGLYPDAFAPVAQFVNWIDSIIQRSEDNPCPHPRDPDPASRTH

[11] = biological target: Pancreatic elastase (Sus scrofa) (UniProt P00772)
Cathepsin L [12] = biological target: Cathepsin L (UniProt P07711); remark: listed apart in the source
Target sequence in this assay (P07711 292-333): as the sequence (P07711 292-333, chain 2 of 2) above

[13] = biological target: Factor XIIa (Homo sapiens) (UniProt P00748); remark: listed apart in the source
[14] = biological target: Neutrophil elastase (Homo sapiens) (UniProt P08246)
[15] = biological target: Plasma kallikrein (Homo sapiens) (UniProt P03952)
Chain of Plasma kallikrein (Homo sapiens) (P03952 391-638): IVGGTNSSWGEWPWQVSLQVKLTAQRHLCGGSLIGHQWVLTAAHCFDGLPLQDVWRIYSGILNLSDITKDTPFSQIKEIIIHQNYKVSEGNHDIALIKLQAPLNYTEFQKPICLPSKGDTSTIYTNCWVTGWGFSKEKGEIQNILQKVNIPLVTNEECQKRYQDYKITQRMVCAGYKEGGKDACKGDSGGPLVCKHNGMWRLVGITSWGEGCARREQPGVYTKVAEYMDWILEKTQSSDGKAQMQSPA

Plasmin (Homo sapiens) [16] = biological target: Plasmin (Homo sapiens) (UniProt P00747); remark: listed apart in the source
Trypsin (Bos taurus) [17] = biological target: Trypsin (Bos taurus) (UniProt P00760); remark: listed apart in the source
[18] = biological target: Chymotrypsin (Bos taurus) (UniProt P00766); remark: listed apart in the source
[19] = biological target: Factor XIIa (Homo sapiens) (UniProt P00748); remark: listed apart in the source
Factor Xa (Homo sapiens) [20] = biological target: Factor Xa (Homo sapiens) (UniProt P00742)
Chain of Factor Xa (Homo sapiens) (P00742 235-488): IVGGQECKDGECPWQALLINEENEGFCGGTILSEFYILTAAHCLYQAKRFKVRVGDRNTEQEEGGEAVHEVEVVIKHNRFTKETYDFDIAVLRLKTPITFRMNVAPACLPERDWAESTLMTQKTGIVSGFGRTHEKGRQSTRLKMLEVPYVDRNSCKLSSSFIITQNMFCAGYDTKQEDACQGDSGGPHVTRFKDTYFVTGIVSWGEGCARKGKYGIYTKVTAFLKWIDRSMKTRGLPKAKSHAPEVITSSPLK

[21] = biological target: Kallikrein (Homo sapiens) (UniProt P03952)
[22] = biological target: Factor XIIa (Homo sapiens) (UniProt P00748); remark: listed apart in the source
[23] = biological target: Plasma kallikrein (Homo sapiens) (UniProt P03952); remark: listed apart in the source
Trypsin (Bos taurus) [24] = biological target: Trypsin (Bos taurus) (UniProt P00760); remark: listed apart in the source
Factor Xa (Homo sapiens) [25] = biological target: Factor Xa (Homo sapiens) (UniProt P00742); remark: listed apart in the source
[26] = biological target: Factor XIIa (Homo sapiens) (UniProt P00748); remark: listed apart in the source
Trypsin (Bos taurus) [27] = biological target: Trypsin (Bos taurus) (UniProt P00760); remark: listed apart in the source
Plasmin (Homo sapiens) [28] = biological target: Plasmin (Homo sapiens) (UniProt P00747); remark: listed apart in the source
[29] = biological target: Kallikrein 4 (Homo sapiens) (UniProt Q9Y5K2)
[30] = biological target: Matriptase (Homo sapiens) (UniProt Q9Y5Y6)
[31] = biological target: β-tryptase (Homo sapiens) (UniProt Q15661)
Cathepsin H [32] = biological target: Cathepsin H (UniProt P09668)
Cathepsin H [33] = biological target: Cathepsin H (UniProt P09668); remark: listed apart in the source
Cathepsin B [34] = biological target: Cathepsin B (UniProt P07858)
Cathepsin L [35] = biological target: Cathepsin L (UniProt P07711); remark: listed apart in the source
Target sequence in this assay (P07711 114-288, chain 1 of 2): as the sequence (P07711 114-288, chain 1 of 2) above
Target sequence in this assay (P07711 292-333, chain 2 of 2): as the sequence (P07711 292-333, chain 2 of 2) above

Dipeptidyl peptidase I = Dipeptidyl peptidase I (UniProt P53634)
[36] = biological target: Clostripain (Hathewaya histolytica) (UniProt P09870)
Chain of Clostripain (Hathewaya histolytica) (P09870 51-181): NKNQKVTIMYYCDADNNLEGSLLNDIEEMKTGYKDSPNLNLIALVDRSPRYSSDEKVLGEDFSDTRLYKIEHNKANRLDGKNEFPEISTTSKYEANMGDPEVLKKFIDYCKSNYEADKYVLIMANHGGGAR

Cathepsin L [37] = biological target: Cathepsin L (UniProt P07711); remark: listed apart in the source
Target sequence in this assay (P07711 292-333): as the sequence (P07711 292-333, chain 2 of 2) above

Clostripain = Clostripain (UniProt P09870)
Chain of Clostripain (P09870 51-181, chain 1 of 2): as the sequence (P09870 51-181) above
Chain of Clostripain (P09870 191-526, chain 2 of 2): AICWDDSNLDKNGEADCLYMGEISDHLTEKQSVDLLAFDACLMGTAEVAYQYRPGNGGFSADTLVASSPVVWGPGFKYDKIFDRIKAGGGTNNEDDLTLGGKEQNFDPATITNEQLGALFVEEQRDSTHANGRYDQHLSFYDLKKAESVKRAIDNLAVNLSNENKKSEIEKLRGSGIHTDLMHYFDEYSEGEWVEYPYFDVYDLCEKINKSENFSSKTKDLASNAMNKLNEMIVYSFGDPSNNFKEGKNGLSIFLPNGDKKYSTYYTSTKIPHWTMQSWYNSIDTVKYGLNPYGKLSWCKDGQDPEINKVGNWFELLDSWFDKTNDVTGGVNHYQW

Cathepsin B [38] = biological target: Cathepsin B (UniProt P07858); remark: listed apart in the source
[39] = biological target: Carboxypeptidase A (Bos taurus) (UniProt P00730)
[40] = biological target: Carboxypeptidase B (Sus scrofa) (UniProt P09955)
Trypsin (Bos taurus) [41] = biological target: Trypsin (Bos taurus) (UniProt P00760); remark: listed apart in the source
[42] = biological target: Factor XIIa (Homo sapiens) (UniProt P00748); remark: listed apart in the source
[43] = biological target: Plasma kallikrein (Homo sapiens) (UniProt P03952); remark: listed apart in the source
Plasmin (Homo sapiens) [44] = biological target: Plasmin (Homo sapiens) (UniProt P00747); remark: listed apart in the source
[45] = biological target: Chymotrypsin (Bos taurus) (UniProt P00766); remark: listed apart in the source
Trypsin (Bos taurus) [46] = biological target: Trypsin (Bos taurus) (UniProt P00760); remark: listed apart in the source
Leukocyte elastase [47] = biological target: Leukocyte elastase (UniProt P08246); remark: listed apart in the source
[48] = biological target: Chymotrypsin (Bos taurus) (UniProt P00766); remark: listed apart in the source
[49] = biological target: Mast cell chymase (Homo sapiens) (UniProt P23946)
Duadenase (Bos taurus) = Duadenase (Bos taurus) (UniProt P80219)
Chain of Duadenase (Bos taurus) (P80219 20-251): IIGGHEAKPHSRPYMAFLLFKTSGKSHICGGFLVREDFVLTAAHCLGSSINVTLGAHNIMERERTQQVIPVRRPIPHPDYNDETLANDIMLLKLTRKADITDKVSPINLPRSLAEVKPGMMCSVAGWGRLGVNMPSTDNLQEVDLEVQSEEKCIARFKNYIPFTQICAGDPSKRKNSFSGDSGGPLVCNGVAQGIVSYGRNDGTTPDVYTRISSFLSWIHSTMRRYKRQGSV

[50] = biological target: Cathepsin G (Homo sapiens) (UniProt P08311); remark: listed apart in the source
Trypsin (Bos taurus) [51] = biological target: Trypsin (Bos taurus) (UniProt P00760); remark: listed apart in the source

Chain of Trypsin (Bos taurus) (P00760 149-246): as the sequence (P00760 149-246) above
Chain of Cruzipain inhibitor (BbCI) (P83051 whole entry): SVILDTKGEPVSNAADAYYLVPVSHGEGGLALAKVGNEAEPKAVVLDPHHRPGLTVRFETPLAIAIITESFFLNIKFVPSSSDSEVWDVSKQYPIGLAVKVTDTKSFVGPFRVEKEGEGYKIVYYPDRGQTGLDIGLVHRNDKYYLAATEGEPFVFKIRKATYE
Chain of LCTI-II (P25850 whole entry): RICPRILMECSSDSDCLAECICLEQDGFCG
Chain of Soybean BBI (P01055 40-110): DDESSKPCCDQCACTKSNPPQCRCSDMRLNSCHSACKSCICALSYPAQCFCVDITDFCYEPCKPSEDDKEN
Chain of ATSI (P80211 whole entry): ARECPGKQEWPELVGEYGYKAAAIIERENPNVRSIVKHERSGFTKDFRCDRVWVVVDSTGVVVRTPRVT
Chain of MCoTI-II (P82409 whole entry): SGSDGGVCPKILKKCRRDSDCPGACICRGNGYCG
Chain of Plasmin (Homo sapiens) (P00747 581-810): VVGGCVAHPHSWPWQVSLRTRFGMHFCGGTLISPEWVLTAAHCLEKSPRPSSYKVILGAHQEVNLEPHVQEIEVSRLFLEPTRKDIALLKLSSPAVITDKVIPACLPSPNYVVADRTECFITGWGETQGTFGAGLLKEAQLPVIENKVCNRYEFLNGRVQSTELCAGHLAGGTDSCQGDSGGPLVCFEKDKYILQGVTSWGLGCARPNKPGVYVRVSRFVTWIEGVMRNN
Chain of Factor XIIa (Homo sapiens) (P00748 whole entry, looked up): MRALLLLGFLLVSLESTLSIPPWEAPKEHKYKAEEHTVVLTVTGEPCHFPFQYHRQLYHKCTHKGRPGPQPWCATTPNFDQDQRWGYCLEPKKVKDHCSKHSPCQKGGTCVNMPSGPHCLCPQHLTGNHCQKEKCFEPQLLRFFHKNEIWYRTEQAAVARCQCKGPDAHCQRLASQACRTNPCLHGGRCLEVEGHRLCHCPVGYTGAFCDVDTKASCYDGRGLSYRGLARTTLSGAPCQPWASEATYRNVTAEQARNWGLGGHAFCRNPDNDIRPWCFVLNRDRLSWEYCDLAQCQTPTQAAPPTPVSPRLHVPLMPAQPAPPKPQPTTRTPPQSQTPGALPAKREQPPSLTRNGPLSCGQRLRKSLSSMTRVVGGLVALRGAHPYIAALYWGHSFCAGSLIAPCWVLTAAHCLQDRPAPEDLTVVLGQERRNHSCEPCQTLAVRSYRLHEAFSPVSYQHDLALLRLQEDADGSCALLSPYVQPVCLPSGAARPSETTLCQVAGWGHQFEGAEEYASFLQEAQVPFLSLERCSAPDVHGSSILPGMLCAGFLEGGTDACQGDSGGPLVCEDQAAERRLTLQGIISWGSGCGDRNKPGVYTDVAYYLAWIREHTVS
Chain of EcTI (P86451 1-134): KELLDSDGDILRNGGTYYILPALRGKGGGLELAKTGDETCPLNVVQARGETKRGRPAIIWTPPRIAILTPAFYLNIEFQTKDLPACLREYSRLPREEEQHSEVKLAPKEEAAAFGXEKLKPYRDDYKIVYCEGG
Chain of EcTI (P86451 135-174): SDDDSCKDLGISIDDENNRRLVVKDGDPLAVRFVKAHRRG
Chain of SKTI-31 (P01070 25-205): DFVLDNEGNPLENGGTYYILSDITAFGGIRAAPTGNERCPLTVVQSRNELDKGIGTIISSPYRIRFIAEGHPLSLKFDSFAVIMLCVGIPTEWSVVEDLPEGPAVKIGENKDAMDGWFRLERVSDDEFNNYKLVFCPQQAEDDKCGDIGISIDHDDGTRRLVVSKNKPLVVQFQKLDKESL
Chain of LLDTI-II (P26771 2-30): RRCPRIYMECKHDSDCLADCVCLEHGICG
Chain of CMTI-I (P01074 whole entry): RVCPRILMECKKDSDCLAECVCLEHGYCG
Chain of Oryzacystatin-II (P20907 whole entry): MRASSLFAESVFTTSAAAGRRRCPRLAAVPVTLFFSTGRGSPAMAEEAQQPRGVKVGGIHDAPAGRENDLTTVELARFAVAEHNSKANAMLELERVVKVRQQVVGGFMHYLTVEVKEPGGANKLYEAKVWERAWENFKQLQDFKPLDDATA
Chain of Potato CPI (P01075 whole entry): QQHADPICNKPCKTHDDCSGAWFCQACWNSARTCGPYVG
Chain of CMTI-V (P19873 whole entry): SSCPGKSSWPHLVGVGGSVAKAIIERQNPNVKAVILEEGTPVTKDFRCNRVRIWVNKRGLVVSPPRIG
Chain of Enterolobium EcTI (P86451 1-134): as the sequence (P86451 1-134) above
Chain of Enterolobium EcTI (P86451 135-174): as the sequence (P86451 135-174) above

Ki [19]: 75 nM
Ki (Factor Xa (Homo sapiens) [20]): 780000 nM
Ki [21]: 0.096 nM
Substance: LCTI-II (from UniProt P25850)

Ki (Cathepsin H [32]): 25 nM
Ki (Cathepsin H [33]): 25 nM
Substance: Oryzacystatin-II (from UniProt P20907)

Ki (Trypsin (Bos taurus) [41]): 1.2 nM
Substance: RATI (from UniProt P01087)

Ki [42]: 1400 nM
Ki [43]: 5.7 nM
Ki (Plasmin (Homo sapiens) [44]): 190 nM
Ki [45]: 70 nM
Substance: SKTI-31 (from UniProt P01070)

Ki (Trypsin (Bos taurus) [46]): 4 nM
Ki (Leukocyte elastase [47]): 2.3 nM
Ki [48]: 29 nM
Ki [49]: 0.5 nM
Ki (Duadenase (Bos taurus)): 0.4 nM
Ki [50]: 6400 nM
Substance: Soybean BBI (from UniProt P01055)

Further lines, the substance ahead of its results:

Substance: ATSI (from UniProt P80211)
Ki [1]: 440 nM
Ki (Trypsin (Bos taurus) [2]): 0.34 nM
Ki (Plasmin (Homo sapiens) [3]): 38 nM
Ki [4]: 0.41 nM
Ki [5]: 120 nM

Substance: CMTI-I (from UniProt P01074)
Kd [6]: 41 nM
Kd (β-Trypsin (Bos taurus)): 13 nM

Substance: CMTI-V (from UniProt P19873)
Ki [7]: 41 nM
Ki (Trypsin (Bos taurus) [8]): 16 nM

Substance: Cruzipain inhibitor (BbCI) (from UniProt P83051)
Ki (Cathepsin L [9]): 2.2 nM
Ki (Leukocyte elastase [10]): 5.3 nM
Ki [11]: 4 nM
Ki (Cathepsin L [12]): 2.2 nM

Substance: EcTI (from UniProt P86451)
Ki [13]: 82 nM
Ki [14]: 55 nM
Ki [15]: 6.1 nM
Ki (Plasmin (Homo sapiens) [16]): 9.4 nM

Substance: Enterolobium EcTI (from UniProt P86451)
Ki (Trypsin (Bos taurus) [17]): 0.8 nM
Ki [18]: 1.1 nM

Substance: LLDTI-II (from UniProt P26771)
Ki [22]: 1400 nM
Ki [23]: 27000 nM
Ki (Trypsin (Bos taurus) [24]): 0.096 nM
Ki (Factor Xa (Homo sapiens) [25]): 41000 nM

Substance: MCoTI-II (from UniProt P82409)
Ki [26]: 750 nM
Ki (Trypsin (Bos taurus) [27]): 0.0023 nM
Ki (Plasmin (Homo sapiens) [28]): 28 nM
Ki [29]: 1.6 nM
Ki [30]: 9 nM
Ki [31]: 600 nM

Substance: PCPI 8.3 (from UniProt P20347)
Ki (Cathepsin B [34]): 320 nM
Ki (Cathepsin L [35]): 0.07 nM
Ki (Dipeptidyl peptidase I): > 500 nM
Ki [36]: > 500 nM
Ki (Cathepsin L [37]): 0.07 nM
Ki (Clostripain): > 500 nM
Ki (Cathepsin B [38]): 320 nM

Substance: Potato CPI (from UniProt P01075)
Ki [39]: 2 nM
Ki [40]: 4 nM

Substance: VhTI (from UniProt P85981)
Ki (Trypsin (Bos taurus) [51]): < 1 nM
